In patent publication US20230053258:

Molecular target: recombinant human insulin (UniProt P01308)
Sequence (P01308 whole entry, looked up): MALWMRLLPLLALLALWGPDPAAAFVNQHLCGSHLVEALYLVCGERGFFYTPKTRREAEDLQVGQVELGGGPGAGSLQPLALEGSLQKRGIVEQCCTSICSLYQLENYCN

| Substance | insulin degradation (residual insulin by ELISA) |
| --- | --- |
| recombinant human IDE, inactive mutant E111Q | the mutated IDE degraded only 15% of the insulin under the same conditions |
| recombinant human wild type insulin degrading enzyme (WT rhIDE) | ~60% degradation following 2 hours at 37 °C |
